{"source": "paper PMC2990581", "about": "“Molecular imaging of glioblastoma multiforme using anti-insulin-like growth factor-binding protein-7 single-domain antibodies” (British Journal of Cancer, 2010)", "key": {"[1]": {"target": "T1, IGFBP7 in human glioblastoma multiforme tissue (Homo sapiens, UniProt Q16270)", "T1 construct": "source: endogenous, frozen human GBM tissue sections", "assay": "immunostaining of cells or tissue; frozen human or mouse brain tumour sections fixed in methanol; sdAb 4.43 (1:100 of 1 mg/ml) for 3 h at RT; detected with anti-c-myc antibody and alexa 647 secondary", "settings": "one partner purified"}, "[2]": {"target": "T2, recombinant human insulin-like growth factor-binding protein 7 (IGFBP7), R&D Systems (human) (UniProt Q16270)", "T2 sequence": "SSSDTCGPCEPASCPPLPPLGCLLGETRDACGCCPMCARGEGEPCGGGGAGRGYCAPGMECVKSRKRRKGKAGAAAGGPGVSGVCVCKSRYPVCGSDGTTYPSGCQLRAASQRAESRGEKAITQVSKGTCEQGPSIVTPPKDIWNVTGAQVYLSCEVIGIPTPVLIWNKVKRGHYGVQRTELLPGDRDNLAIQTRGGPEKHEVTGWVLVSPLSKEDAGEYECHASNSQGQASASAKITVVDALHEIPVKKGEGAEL", "assay": "SPR; Biacore 3000; ~1400 RU recombinant human IGFBP7 amine-coupled on a CM5 chip, ovalbumin as reference; sdAb flowed at 25-200 nM; 25°C; 10 mM HEPES pH 7.4, 150 mM NaCl, 3 mM EDTA, 0.005% P20; 40 μl/min; 1:1 kinetic fit of the 25 nM data, steady-state affinity model and Scatchard plot of the equilibrium data"}, "[3]": {"target": "IGFBP7 in mouse vessels of orthotopic U87MG.EGFRvIII glioblastoma (Mus musculus, UniProt Q61581)", "sequence (Q61581 26-281)": "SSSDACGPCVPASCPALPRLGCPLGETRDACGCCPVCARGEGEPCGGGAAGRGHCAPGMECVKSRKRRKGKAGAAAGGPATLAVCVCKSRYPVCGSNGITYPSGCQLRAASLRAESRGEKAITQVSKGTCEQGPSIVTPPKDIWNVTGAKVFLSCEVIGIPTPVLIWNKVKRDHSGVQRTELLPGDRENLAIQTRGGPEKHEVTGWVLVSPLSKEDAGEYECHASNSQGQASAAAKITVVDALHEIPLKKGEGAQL", "assay": "cell-based or functional assay"}}, "data": [{"binder": "anti-IGFBP7 single-domain antibody (sdAb) 4.43 (VHH, VHH isolated from an immune llama phage display library; For in vivo imaging the same sdAb was labelled with Cy5.5 succinimidyl ester (dye/antibody ratio of one) or conjugated to PEGylated Fe3O4 nanoparticles; also called anti-IGFBP7 sdAb; source: expressed periplasmically (vector pSJF2), purified by IMAC; not shown: c-Myc, C-terminal, kept) VHH: QVKLEESGGGLVQAGGSLRLSCAASGRTSRRYAMGWFRQAPGKEREFVAGISRSGDGTHYAYSVKGRFTISRDNAANTVELQMNSLKPEDTAVYFCAAARTAFYYYGNDYNYWGQGTQVTVSS", "values": [{"measurement": "binding result", "setting": "[1]", "result": "binds"}, {"measurement": "Kd", "setting": "[2]", "result": 20, "unit": "nM"}, {"measurement": "koff", "setting": "[2]", "result": 0.0013, "unit": "s⁻¹"}, {"measurement": "brain tumour fluorescence signal by in vivo optical imaging 24 h after i.v. injection of 50 μg anti-IGFBP7 sdAb-Cy5.5, against negative control (NC) sdAb-Cy5.5", "setting": "[3]", "result": 6, "unit": "fold"}]}]}
